Among the data in article PMC9672452 are expression_or_secretion values, retold here.

The series can be described thus: cell-surface N1, PE anti-Notch1 flow cytometry, CHO. As to conditions: control: wild type. (In flow cytometry, cells or beads pass a laser one at a time.)

As for NOTCH1 (N1): N386T, the expression_or_secretion result (glycan gained) was “no change”.
In the case of NOTCH1 (N1): T311P, where the note is “glycan lost”, the expression_or_secretion result was “decreases”.
Regarding NOTCH1 (N1): T349P, the expression_or_secretion result (glycan lost) is “decreases”.
